# According to patent US20250145697A1 (WASHINGTON UNIVERSITY, published 2025):
# T1: ApoE4 amino acids 1-164, expressed on yeast (human, UniProt P02649 19-182)
# T1 construct: with myc tag, on yeast cells; range counts on the mature protein; also called up to helix 4; not shown: myc tag and yeast surface-display partner
# T1 chain: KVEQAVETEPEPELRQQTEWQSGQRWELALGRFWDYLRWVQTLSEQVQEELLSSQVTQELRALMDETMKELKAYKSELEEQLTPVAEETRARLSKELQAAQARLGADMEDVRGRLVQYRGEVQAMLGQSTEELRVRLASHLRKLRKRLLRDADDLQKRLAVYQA
# T2: ApoE4 amino acids 24-164, expressed on yeast (human, UniProt P02649 42-182)
# T2 construct: with myc tag, on yeast cells; range counts on the mature protein; also called helix1 + 2 + 3 + 4
# T2 chain: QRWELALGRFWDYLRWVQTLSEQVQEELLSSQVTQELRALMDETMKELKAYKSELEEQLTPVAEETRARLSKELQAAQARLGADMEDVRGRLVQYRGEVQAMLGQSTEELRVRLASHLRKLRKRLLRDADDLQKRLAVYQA
# T3: ApoE4 amino acids 54-164, expressed on yeast (human, UniProt P02649 72-182)
# T3 construct: with myc tag, on yeast cells; expression in yeast printed as Low; range counts on the mature protein; also called helix2 + 3 + 4
# T3 chain: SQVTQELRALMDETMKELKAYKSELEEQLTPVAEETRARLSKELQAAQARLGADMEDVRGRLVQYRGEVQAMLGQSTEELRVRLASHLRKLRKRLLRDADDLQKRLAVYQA
# T4: ApoE4 amino acids 1-210, expressed on yeast (human, UniProt P02649 19-228)
# T4 construct: with myc tag, on yeast cells; range counts on the mature protein; also called N terminal domain; not shown: myc tag and yeast surface-display partner
# T4 chain: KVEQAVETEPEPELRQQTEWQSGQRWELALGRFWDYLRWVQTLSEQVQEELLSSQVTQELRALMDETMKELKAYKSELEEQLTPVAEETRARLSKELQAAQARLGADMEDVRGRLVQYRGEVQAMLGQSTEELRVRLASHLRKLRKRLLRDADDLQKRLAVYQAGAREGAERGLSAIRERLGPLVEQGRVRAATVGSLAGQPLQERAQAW
# Legend:
# [1] = target: T5, recombinant alipidated human ApoE4 (human, UniProt P02649 19-317); experiment: SPR (Biacore T200), biotinylated ApoE4 captured on anti-biotin mAb chip, antibody injected, 1:1 fit
# T5 construct: mature; full length recombinant protein made in E. coli or bought; biotinylated for SPR; position 112 is counted on the mature protein, not on the precursor entry; also called recApoE; non-lipidated ApoE4
# Outline: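 Biotinylated recombinant alipidated human ApoE4 (E. coli-expressed or commercial) captured on immobilized anti-biotin mAb; antibody serial dilutions injected at 30 μl/min, e.g. 3-min association, 10-min dissociation. Responses reference-subtracted against irrelevant-IgG flow cell; kinetics from 1:1 Langmuir simultaneous fit of Kon and Koff.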
# Target sequence in this assay (P02649 19-317 C130R): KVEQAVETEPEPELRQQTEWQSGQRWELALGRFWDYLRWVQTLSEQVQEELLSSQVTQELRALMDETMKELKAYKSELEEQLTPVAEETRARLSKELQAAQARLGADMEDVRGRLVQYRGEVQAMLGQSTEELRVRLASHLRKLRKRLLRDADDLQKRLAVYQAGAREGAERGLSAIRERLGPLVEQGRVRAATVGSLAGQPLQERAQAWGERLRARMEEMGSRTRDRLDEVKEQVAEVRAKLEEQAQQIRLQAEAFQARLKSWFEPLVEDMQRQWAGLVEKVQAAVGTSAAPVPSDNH
# [2] = target: T1, ApoE4 amino acids 1-164, expressed on …; experiment: yeast display of myc-tagged ApoE4 fragment, antibody staining
# Method: (§1) Epitope binding of various anti-ApoE antibodies was evaluated multiple ways. Different sequences of human ApoE were expressed on the surface of yeast by yeast display using different plasmids. Different anti-ApoE antibodies were then assessed to determine binding to the different ApoE sequences by immunofluorescence of the yeast cell surface (Table 4). Because none of the anti-ApoE antibodies tested here recognize murine ApoE, the epitope was further narrowed down by comparison of the murine and human ApoE sequences as shown in Tables 4 and 5. DNA constructs containing different regions of ApoE4 with myc tag were transformed into yeast cells. Yeast cells were incubated with HJ15x to detect binding or anti-myc antibody to detect expression.
# [3] = target: T2, ApoE4 amino acids 24-164, expressed on …; experiment: as above
# Method: as §1
# [4] = target: T3, ApoE4 amino acids 54-164, expressed on …; experiment: as above
# Method: as §1
# [5] = target: T4, ApoE4 amino acids 1-210, expressed on …; experiment: as above
# Method: as §1
# [6] = target: T5, recombinant alipidated human ApoE4; experiment: ELISA, plate coated with 0.5 ug/ml recombinant apoE4, HRP goat anti-mouse detection, OD450
# Method: ELISA plates were coated with 0.5 μg/ml of recombinant apoE2 (square), apoE3 (open circle), or apoE4 (closed circle). Then different concentrations of (A) HJ151, (B) HJ153, (C) HJ154, or (D) HJ156 were loaded on the plates. Horse-radish peroxidase labeled goat anti-mouse secondary antibodies were used to detect binding. […] HJ151 is specific for ApoE4 and HJ156 binds only ApoE3 and ApoE4. FIG. 5E-H are graphs depicting surface plasmon resonance profiles for various antibodies. Anti-ApoE antibodies were serially diluted 3-fold (starting at 100 nM for HJ153 (E), and 1000 nM for HJ151 (F), and […] (G)) for detection of binding to biotinylated-recombinant apoE4 captured on a streptavidin chip. Samples were injected at a flow rate of 30 μl/minute. (H) Apparent KD values of HJ151, HJ153 and HJ156 were calculated based on the SPR experiment.
# ELISA plates were coated with 0.5 μg/ml of recombinant apoE2, apoE3, or apoE4. Then different concentrations of HJ151 (FIG. 5A), HJ153 (FIG. 5B), HJ154 (FIG. 5C), or HJ156 (FIG. 5D) were loaded on the plates. Horse-radish peroxidase labeled goat anti-mouse secondary antibodies were used to detect binding. […] HJ151 is specific for ApoE4 and HJ156 binds only ApoE3 and ApoE4. Surface plasmon resonance profiles for various antibodies was also performed.
Kd [1] [nM],koff [1] [s⁻¹],kon [1] [M⁻¹ s⁻¹],binding result [2],binding result [3],binding result [4],binding result [5],EC50 (read off the curve) [6] [nM],Binder
60.2,0.00119,19700,binds,binds,binds,binds,~0.5,"HJ151 (antibody, V domains shown, murine monoclonal antibody from hybridoma; also called HJ151B (biotinylated)) VH: QVQLQQSGAELVRPGASVTLSCKASGYTFTDYEMHWVKQTPVHGLEWIGVIDPEKGGTAYNQKFKGKAILTADKSSSTAYMDLRSLTSEDSAVYYCLKDSWGQGTTLTVSS VL: DVLMTQTPLSLPVSLGDQASISCRSSQTIVHSDGNTYLEWYLQKPGQSPKLLIYKVSNRFSGVPDRFSGSGSGTYFTLKISRVEAEDLGVYYCFQGSHVPCTFGGGTKLEIKR"
216,0.00449,20700,binds,binds,binds,binds,~1,"HJ156 (antibody, V domains shown, murine monoclonal antibody from hybridoma; also called HJ156B (biotinylated)) VH: QVQLQQSGPELVKPGASVKISCKASGYIFTDYYINWVKRRPGQGLEWIGWIFPGSGVSYYNEQFKGKATLTVDKPSNTAYIFLSRLTSEDSAVYFCARYYSSSPFAYWGQGTLVTVSA VL: DVLMTQTPLSLPVSLGDQASISCRSSQNIIHSNGNTYLEWFLQRPGQSPELLIYKVSNRFSGVPDRFSGSGSGTDFTLKISRVEAEDLGVYYCFQGSHVPYTFGGGTKLEIKR"
0.675,0.000348,516000,binds,binds,binds,binds,~0.3,"HJ154 (antibody, V domains shown, murine monoclonal antibody from hybridoma; also called HJ154B (biotinylated)) VH: QVQLQQPGTEFVMSGASVMLSCKASGYIFTNYWLHWVKQRPGHGLEWIGEIDPSDSYSICNDNFKGKSTLTVDKSSSTAYMQLSSLTSEDSAVYYCAGSLGRVGLAYWGQGTLVTVST VL: QIVLTQSPAIMSASPGEKVTMSCSASSSVSNMYWYQQKPGSSPKSWIYRTSNLASGVPARFSGSGSGTSYSLTISNMEAEDAATYYCQHYQNYPLTFGAGTKLELKR"
